# Source: patent CN114539423A (dated 2022)
# T1: CD19 (on Nalm6 leukemia cells) (human, UniProt P15391 20-556)
# T1 construct: whole, on cells; also called CD19抗原; Nalm6上的CD19抗原
# T1 sequence (looked up): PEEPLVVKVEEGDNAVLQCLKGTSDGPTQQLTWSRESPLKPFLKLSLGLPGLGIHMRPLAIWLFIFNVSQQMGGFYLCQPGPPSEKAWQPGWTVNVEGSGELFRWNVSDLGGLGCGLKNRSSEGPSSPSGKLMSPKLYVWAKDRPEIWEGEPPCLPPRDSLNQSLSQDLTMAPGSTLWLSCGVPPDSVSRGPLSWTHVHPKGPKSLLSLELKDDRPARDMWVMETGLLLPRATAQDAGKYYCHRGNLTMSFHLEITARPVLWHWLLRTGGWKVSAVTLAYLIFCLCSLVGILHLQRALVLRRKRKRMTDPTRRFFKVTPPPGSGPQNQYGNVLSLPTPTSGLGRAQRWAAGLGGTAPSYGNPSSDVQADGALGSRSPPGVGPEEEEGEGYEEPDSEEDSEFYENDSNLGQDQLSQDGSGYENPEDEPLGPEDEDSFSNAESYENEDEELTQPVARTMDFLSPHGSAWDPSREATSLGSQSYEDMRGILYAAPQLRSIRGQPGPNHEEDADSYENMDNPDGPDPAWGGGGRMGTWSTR
# B1: CD19scFv-CD80-CD3scFv三特异性融合蛋白 (other)
# chain: HHHHHHLEDIVLTQSPKFMSTSVGDRVSVTCKASQNVGTNVAWYQQKPGQSPKPLIYSATYRNSGVPDRFTGSGSGTDFTLTITNVQSKDLADYFCQQYNRYPYTSGGGTKLEIKRGGGGSGGGGSGGGGSQVQLQQSGAELVRPGSSVKISCKASGYAFSSYWMNWVKQRPGQGLEWIGQIYPGDGDTNYNGKFKGQATLTADKSSSTAYMQLSGLTSEDSAVYFCARKTISSVVDFYFDYWGQGTTLTVSSEFGGGGSGGGGSGGGGSGGGGSVIHVTKEVKEVATLSCGHNVSVEELAQTRIYWQKEKKMVLTMMSGDMNIWPEYKNRTIFDITNNLSIVILALRPSDEGTYECVVLKYEKDAFKREHLAEVTLSVKADFPTPSISDFEIPTSNIRRIICSTSGGFPEPHLSWLENGEELNAINTTVSQDPETELYAVSSKLDFNMTTNHSFMCLIKYGHLRVNQTFNWNTTKQEHFPDNGGGGSGGGGSGGGGSGGGGSVDADIELTQSPAIMSASPGEKVTMTCSASSSVSYMNWYQQKSGTSPKRWIYDTSKLASGVPARFSGSGSGTSYSLTISGMEAEDAATYYCQQWSSNPFTFGSGTKLELKRGGGGSGGGGSGGGGSQVQLQQSGAELARPGASVKMSCKASGYTFTRYTMHWVKQRPGQGLEWIGYINPSRGYTNYNQKFKDKATLTTDKSSSTAYMELTRLTSEDSAVYYCARYYDDHYSLDYWGQGTTVTVSSWSHPQFEK
# notes: Expressed in ExpiCHO-S cells; also called 19TriTE; CD19scFv-CD80-CD3scFv重组融合蛋白
# What was measured:
# [1] = molecular target: CD3 (on human T cells) (human); assay: flow cytometry titration on human T cells, same method as for Nalm6, fitted in GraphPad Prism8
# CD3 (on human T cells) (human), sequence (P07766 23-207, chain 1 of 4): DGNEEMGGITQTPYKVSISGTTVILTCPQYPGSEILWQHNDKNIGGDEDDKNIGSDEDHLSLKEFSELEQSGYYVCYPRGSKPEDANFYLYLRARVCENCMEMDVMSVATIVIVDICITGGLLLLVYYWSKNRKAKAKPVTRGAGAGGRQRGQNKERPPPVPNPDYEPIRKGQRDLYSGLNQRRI
# CD3 (on human T cells) (human), sequence (P09693 23-182, chain 2 of 4, further chain): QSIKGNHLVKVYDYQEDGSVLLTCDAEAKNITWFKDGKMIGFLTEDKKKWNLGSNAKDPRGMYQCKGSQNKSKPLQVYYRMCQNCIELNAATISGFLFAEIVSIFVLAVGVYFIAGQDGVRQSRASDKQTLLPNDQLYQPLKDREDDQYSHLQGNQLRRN
# CD3 (on human T cells) (human), sequence (P04234 22-171, chain 3 of 4, further chain): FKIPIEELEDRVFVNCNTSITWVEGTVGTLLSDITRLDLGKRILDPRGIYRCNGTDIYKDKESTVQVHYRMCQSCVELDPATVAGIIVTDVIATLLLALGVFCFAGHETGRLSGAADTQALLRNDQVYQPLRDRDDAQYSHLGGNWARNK
# CD3 (on human T cells) (human), sequence (P20963 22-164, chain 4 of 4, further chain): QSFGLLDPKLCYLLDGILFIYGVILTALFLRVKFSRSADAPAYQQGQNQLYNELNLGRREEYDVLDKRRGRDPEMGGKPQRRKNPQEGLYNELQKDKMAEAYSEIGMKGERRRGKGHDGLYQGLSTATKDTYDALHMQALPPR
# [2] = molecular target: T1, CD19 (on Nalm6 leukemia cells); assay: flow cytometry titration (0.05-100 nM) on Nalm6 cells, anti-His then APC anti-mouse IgG detection, fitted in GraphPad Prism8
binder,measurement,setting,value
B1,Kd,[1],19.2 nM
same,Kd,[2],11.7 nM
